Patent publication US8541670B2, “Compositions and methods for inhibiting tumor cell growth” (priority 2007, dated 2013)
Where no end group is shown, it is not given here. red fluorescent dye = not defined here

Legend:
Abl = Abl (Homo sapiens, UniProt P00519); experiment: Cell-based kinase assay, phosphorylation of intracellular substrate (Tyr-207 CRKL)
Protocol: As a specific substrate, the phosphorylation level of GSK-3[…] at Ser-9 was also evaluated. […] The decrease was specific to the AKT phosphorylation site on GSK-3[…] at Ser-9, since a change in the phosphorylation level of GSK-3[…] at Tyr-216 or GSK-3[…] at Tyr-279 was not observed. Moreover, the in vivo reduction of the phosphorylation of AKT substrates was more obvious at the injection site, since a significant change in the phosphorylation of AKT substrates in the frontal cortex or cerebellum between the two hemispheres was not observed. […] To test the specificity/selectivity of ZaTa as the inhibitor of AKT1 versus the other major kinases, a series of in vitro kinase assays was performed at IC50 for AKT1 and at ten times higher concentrations. […]
Phosphorylation sites for kinases analyzed herein included Ser-235/236 S6 (a substrate for p70S6K), Tyr-207 CRKL (a substrate for Abl; Zipfel, et al. (2004) supra), Ser-241 PDK1 (a substrate for PI3K), Tyr-1022/1023 JAK1 (a substrate for JAK3; Wang, et al. (2003) supra), Ser-421 Huntingtin (a substrate for SGK; Rangone, et al. (2004) supra), Tyr-783 PLC (a substrate for TrkB; Middlemas, et al. (1994) supra), and Ser-338 cRaf (a substrate for PAK3; King, et al. (1998) supra).

olfactory bulb cells = experiment: In vivo TUNEL in olfactory bulb after repeated intranasal delivery; set-up: species or system C57BL/6 mice; conditions: repeated intranasal treatment for three days
Excerpt: To confirm the apoptotic inducing effect of ZaTa in vivo, ZaTa was delivered to the mouse brain via the nasal cavity, a minimally invasive procedure compared to the stereotactic surgery. Intranasal delivery of compounds into the brain is an efficient and effective way for local delivery of compounds, without the need for passing the blood brain barriers, the major obstacle for studying the effect of different inhibitors/activators in CNS (Vyas, et al. (2005) Curr. Drug Deliv. 2:165-175; Hrafnkelsdottir, et al. (2005) Biol. Pharm. Bull. 28:1038-1042). […] This was visualized by double labeling of the brain sections with fluorescent TUNEL and a nuclear marker.
Depending on the intended use, a pharmaceutical composition of the invention can be administered by any suitable means, including parenteral injection (such as intraperitoneal, subcutaneous, intratumoral or intramuscular injection), orally or by topical application (e.g., transdermal or via a mucosal surface). By pharmaceutically acceptable formulation is meant, a composition or formulation that allows for the effective distribution of the nucleic acid molecules of the instant invention in the physical location most suitable for their desired activity. […]

Chain of Abl (P00519 whole entry, species assumed): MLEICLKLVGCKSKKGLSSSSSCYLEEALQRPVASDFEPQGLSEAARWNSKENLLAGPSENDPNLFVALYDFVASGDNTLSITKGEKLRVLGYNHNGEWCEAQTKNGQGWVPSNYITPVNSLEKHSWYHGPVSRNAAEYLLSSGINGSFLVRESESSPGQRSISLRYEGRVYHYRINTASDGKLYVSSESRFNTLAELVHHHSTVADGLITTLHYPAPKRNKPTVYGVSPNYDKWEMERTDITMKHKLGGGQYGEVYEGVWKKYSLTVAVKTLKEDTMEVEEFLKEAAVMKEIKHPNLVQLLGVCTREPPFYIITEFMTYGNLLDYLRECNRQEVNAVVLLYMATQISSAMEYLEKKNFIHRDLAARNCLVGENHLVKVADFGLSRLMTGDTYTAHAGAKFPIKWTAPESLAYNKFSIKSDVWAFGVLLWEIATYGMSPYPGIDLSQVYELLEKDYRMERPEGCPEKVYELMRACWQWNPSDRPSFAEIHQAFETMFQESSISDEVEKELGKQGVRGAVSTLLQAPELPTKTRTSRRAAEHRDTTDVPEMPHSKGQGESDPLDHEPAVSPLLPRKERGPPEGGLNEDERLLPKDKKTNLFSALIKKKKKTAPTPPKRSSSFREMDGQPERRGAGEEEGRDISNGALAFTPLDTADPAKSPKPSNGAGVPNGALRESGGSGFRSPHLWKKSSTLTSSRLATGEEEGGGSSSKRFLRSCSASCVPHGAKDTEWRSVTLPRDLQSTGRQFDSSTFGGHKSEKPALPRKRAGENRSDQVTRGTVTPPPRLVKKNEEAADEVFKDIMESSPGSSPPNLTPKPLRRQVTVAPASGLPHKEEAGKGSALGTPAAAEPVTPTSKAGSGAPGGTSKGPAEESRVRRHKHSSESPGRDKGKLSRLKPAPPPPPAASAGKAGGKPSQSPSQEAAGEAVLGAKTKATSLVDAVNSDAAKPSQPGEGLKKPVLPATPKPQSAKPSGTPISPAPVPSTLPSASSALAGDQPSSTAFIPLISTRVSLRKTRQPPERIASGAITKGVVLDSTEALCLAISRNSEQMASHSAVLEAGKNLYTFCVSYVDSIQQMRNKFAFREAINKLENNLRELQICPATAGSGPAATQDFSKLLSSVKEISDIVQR

“labeled ZaTa: ZaTa peptide labeled with a red fluorescent dye at its N-terminus ({red fluorescent dye}-AKRVKGRTWTLCGTPEY; reading uncertain)” was tested. Which “inhibition of Abl in cells” value (Abl) did it give?
Its value is “did not cause inhibition”.

And the “number of apoptotic cells in olfactory bulb” value (olfactory bulb cells)?
Its value is “significantly increased”.
